In article PMC3817407:
Several values for one entry are separate records, joined by “and”; a condition that tells them apart may be missing. Identical values can stand only once.

T1: ECF25_1643
T1 chain: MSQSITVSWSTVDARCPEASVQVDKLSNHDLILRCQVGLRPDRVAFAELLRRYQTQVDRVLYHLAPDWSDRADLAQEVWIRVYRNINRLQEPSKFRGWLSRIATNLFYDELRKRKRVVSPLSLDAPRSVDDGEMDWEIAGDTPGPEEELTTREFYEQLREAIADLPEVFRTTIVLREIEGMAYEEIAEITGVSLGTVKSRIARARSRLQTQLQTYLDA

T2: ECF35_3582
T2 chain: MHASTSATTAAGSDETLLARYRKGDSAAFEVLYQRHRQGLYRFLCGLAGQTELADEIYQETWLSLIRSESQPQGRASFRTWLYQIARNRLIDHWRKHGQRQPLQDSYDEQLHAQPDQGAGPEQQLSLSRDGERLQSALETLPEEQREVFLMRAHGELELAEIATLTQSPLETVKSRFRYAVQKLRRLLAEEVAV

T3: ECF28_1088
T3 chain: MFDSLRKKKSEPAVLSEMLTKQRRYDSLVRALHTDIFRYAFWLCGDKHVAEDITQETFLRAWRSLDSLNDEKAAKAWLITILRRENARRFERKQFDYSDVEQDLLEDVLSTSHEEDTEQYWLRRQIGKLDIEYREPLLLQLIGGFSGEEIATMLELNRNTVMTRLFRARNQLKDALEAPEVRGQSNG

T4: ECF16_3622
T4 chain: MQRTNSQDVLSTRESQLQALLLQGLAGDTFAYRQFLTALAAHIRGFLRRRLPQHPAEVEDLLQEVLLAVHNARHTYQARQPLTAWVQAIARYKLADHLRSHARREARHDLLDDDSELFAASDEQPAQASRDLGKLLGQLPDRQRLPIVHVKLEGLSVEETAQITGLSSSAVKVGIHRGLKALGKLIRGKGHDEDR

T5: ECF04_1609
T5 chain: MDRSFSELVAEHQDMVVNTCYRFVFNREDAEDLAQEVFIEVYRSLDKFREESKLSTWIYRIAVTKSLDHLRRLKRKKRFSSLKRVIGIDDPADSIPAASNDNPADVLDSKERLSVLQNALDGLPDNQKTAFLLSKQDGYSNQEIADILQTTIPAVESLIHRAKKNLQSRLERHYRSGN

T6: ECF01_3473
T6 chain: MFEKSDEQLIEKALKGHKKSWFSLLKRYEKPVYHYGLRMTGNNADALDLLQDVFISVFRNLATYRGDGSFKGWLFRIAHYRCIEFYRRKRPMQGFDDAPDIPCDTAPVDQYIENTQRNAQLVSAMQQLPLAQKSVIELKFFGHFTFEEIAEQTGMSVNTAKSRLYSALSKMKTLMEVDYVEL

T7: ECF16_973
T7 chain: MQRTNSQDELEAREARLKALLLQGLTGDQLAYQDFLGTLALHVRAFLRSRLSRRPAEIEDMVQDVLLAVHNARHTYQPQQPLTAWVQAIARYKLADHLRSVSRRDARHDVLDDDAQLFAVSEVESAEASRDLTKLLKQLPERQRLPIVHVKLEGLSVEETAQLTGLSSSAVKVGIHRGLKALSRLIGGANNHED

T8: ECF12_807
T8 chain: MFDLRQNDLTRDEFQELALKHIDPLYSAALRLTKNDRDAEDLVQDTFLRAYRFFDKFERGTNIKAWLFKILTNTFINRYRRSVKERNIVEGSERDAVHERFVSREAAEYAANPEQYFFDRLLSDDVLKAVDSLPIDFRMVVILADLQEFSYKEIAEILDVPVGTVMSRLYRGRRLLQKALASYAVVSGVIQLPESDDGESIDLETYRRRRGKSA

T9: ECF17_1691
T9 chain: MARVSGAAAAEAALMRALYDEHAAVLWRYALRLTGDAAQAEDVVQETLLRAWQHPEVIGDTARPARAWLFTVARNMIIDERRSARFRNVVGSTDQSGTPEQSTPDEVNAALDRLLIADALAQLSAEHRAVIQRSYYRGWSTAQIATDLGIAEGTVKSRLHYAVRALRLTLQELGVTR

T10: ECF34_1384
T10 chain: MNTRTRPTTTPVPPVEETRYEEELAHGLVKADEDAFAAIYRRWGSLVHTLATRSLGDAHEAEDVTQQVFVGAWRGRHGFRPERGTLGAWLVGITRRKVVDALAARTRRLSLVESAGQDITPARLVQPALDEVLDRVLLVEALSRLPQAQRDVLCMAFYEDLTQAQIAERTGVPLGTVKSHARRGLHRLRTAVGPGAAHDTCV

T11: ECF11_3726
T11 chain: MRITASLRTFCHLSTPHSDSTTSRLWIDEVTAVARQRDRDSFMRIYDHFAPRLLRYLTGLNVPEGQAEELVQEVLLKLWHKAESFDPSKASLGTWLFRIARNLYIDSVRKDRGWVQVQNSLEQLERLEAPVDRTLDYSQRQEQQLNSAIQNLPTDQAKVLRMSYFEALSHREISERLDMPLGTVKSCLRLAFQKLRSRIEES

T12: ECF15_524
T12 chain: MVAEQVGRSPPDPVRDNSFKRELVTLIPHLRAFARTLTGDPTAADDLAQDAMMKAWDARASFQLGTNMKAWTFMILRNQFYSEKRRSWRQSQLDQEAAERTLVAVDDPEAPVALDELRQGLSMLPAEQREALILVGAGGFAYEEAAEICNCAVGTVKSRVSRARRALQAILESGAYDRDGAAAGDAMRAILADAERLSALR

T13: ECF22_1147
T13 chain: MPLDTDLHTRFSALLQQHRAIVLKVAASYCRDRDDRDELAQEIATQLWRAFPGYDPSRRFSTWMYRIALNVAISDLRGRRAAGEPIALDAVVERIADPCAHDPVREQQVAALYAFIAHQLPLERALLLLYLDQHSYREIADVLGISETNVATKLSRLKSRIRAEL

T14: ECF15_436
T14 chain: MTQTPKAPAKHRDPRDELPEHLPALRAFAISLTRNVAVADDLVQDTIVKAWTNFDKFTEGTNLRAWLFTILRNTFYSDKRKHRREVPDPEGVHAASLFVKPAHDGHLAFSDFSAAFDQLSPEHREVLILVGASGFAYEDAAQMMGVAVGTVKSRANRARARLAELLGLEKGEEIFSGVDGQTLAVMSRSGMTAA


How the values were obtained:
[1] = target: T1, ECF25_1643
[2] = target: T2, ECF35_3582
[3] = target: T3, ECF28_1088
[4] = target: T4, ECF16_3622
[5] = target: T5, ECF04_1609
[6] = target: T6, ECF01_3473
[7] = target: T7, ECF16_973
[8] = target: T8, ECF12_807
[9] = target: T9, ECF17_1691
[10] = target: ECF27_1331
[11] = target: T10, ECF34_1384
[12] = target: T11, ECF11_3726
[13] = target: T12, ECF15_524
[14] = target: T13, ECF22_1147
[15] = target: T14, ECF15_436

Row | Binder | fold repression [1] | fold repression [2] | fold repression [3] | fold repression [4] | fold repression [5] | fold repression [6] | fold repression [7] | fold repression [8] | fold repression [9] | fold repression [10] | fold repression [11] | fold repression [12] | fold repression [13] | fold repression [14] | fold repression [15]
1 | AS25_1643_cl43 (protein) MTTDSNFNDPCRRQFSRDLPQKMARHTNEATGAMDMVKRDRFELLSAYLGGEVTAAERRQVEDWPANDVAVQRLYSRLLKLRQGIRTMPIPTAQQSPETTAEQVFAKVNRRSRLAWKLGGAAVAACVIGAVTNWLPGRQTGIPQLAQQPQEQPTQAVTTPDALPMIALNNPVIEIPKAAVASPTKFIQPQPQLGEIPPDIN | 4.28 and 3.89 | 1.57 | 1.48 | 2.26 | 2.44 | 2.75 | 1.22 | 4.23 | 1.92 | 1.96 | 2.43 | 4.29 | 1.18 | 5.45 | 1.2
2 | AS31_34 (protein) MNKEKLSDHLKSEWKKIDQTANPSIPNQKELLHQLSQMKAEYRKKLLQEIILFVFCALMVVSAAILAFTQAPAVFIVLQVCVLAVLPILIAAEKKRHLGECEVKRG | 2.25 and 1.91 | 2.06 | 1.59 | 3.01 | 2.79 | 1.76 | 1.84 | 3.66 | 2.93 | 2.57 | 2.98 | 5.86 | 2.19 | 3.62 | 2.54
3 | AS27_1331 (protein) MSAADKDPDKHSADADPPLTVELLADLQAGLLDDATAARIRSRVRSDPQAQQILRALNRVRRDVAAMGADPAWGPAARPAVVDSISAALRSARPNSSPGAAHAARPHVHPVRMIAGAAGLCAVATAIGVGAVVDAPPPAPSAPTTAQHITVSKPAPVIPLSRPQVLDLLHHTPDYGPPGGPLGDPSRRTSCLSGLGYPASTPVLGAQPIDIDARPAVLLVIPADTPDKLAVFAVAPHCSAADTGLLASTVVPRA | 2.81 and 2.4 | 5.79 | 1.37 | 6.93 | 5.65 | 2.69 | 5.57 | 2.07 | 2.09 | 3.32 | 2.35 | 5.02 | 3.38 | 2.2 | 4.26
4 | AS27_4265 (protein) MTGHPDVAEIADLAEGLLPTTRTTEVRQHLESCELCADVYASLTEIQGLLGTLPAPAPMPDDVAARIDAALAAEPPLGIADGTRVSRETSTPADRPAGHARPSSTGPGRKDRRRGGRRRIAVLGAVAAAAAIGIGSVVVSSLTEDSSSGNTAREQQTAIADTFSEGRLKDRVTNLVADGSAENGSRTPRSFGMESENGGETAENHVFKQPTVPECIRKGIGRDDAVIATEPGVYKGREALLVVLPDATNDTQVTAYIVETACVDQPAVGKAKILLEHSYARS | 1.63 and 1.17 | 1.97 | 2.14 | 5.58 | 2.44 | 3.99 | 1.77 | 8.59 | 2.82 | 3.78 | 5.28 | 7.03 | 2.74 | 8.51 | 3.65
5 | AS25_1645 (protein) MNESFSQRQTDGDRRRGGDLEMKKNHTSHQHHTDSETPMGHNFEQFQRLSAYFDGEATPAERKEIQHLLDTDPQVKQQYQQLRQLKQALQLLPIPTSISAQYLGQRVLARLRRSQLRTLSLWGSGAIAALFVAGVMGQMPRLNFDRFAKNDPDQQPTAALVETSPQGEEALVVALNRPVLQIPKLATTESP | 19.5 and 19.2 | 2.98 | 3.89 | 6.9 | 6.4 | 7.11 | 5.41 | 9.09 | 4.24 | 11.2 | 7.62 | 13.1 | 6.73 | 7.04 | 8.62
6 | AS30_35 (protein) MDKRLQQLREEYKNVQIPKELDIIVEKALQQEPKKKRIVMWPTSAAIAAAILFTALVNINPDAAQAMSKIPVIGKIVKAITFIEIKEEKDQSSIDVKTPALSGLSNKELENSINEKYLKESQQLYKEFIQSTSKNKKGHLSIYSDYETVTDTPDLLSIRRNIETTQASSYTQSRYITIDKKNDILLTLKSLFKDERYIKVISQNIKEQMKQQMKEDPNKIYWLTDEDAEPFKTILPDQTFYITEDHKLVISFDEYEVAPGYMGVTEFTIPTGVISNLLVGERYIR | 1.46 and 1.19 | 6.57 | 1.68 | 1.39 | 2.43 | 1.65 | 1.73 | 3.12 | 1.6 | 2.39 | 2.04 | 2.09 | 1.74 | 2.12 | 1.98
